This note sets out measurements from patent US20190194718, “GENERATION OF TAGGED DNA FRAGMENTS” (QIAGEN GMBH, published 2019).

This series has as its target BPHIN 1 (wild-type HIV-1 integrase) (Human immunodeficiency virus 1, UniProt P04585 P04585:1148-1435). Nature of the series: pGL2 fragments 150-500 bp; 5 mM MnCl2, 37 C. To be noted: tags: BioProducts MD, LLC; chain copies: 4; partially double-stranded.

B1: IN adaptor 7 (dsDNA)
DNA 1: AATGATACGGCGACCACCGAGATCTACACTCTTTCCCTACACGACGCTCTTCCGATCTAGCAGT
DNA 2: ACTGCT
With B1, the binding result is on record as “binds”.
